These are literature values, as cited in paper PMC10766771.

As a reminder, the pKa is the negative logarithm of the acid dissociation constant.

The data set has as its system His154. In words: other (pH dependence of the redox potential, electrochemistry). Conditions: oxidized [2Fe-2S] cluster, isolated fragment.

On to “Rieske [2Fe-2S] iron-sulfur protein (cytochrome bc1-type), isolated soluble fragment (Thermus thermophilus)”, for which the pKa is given as 7.8.
